According to patent US6034053A, “EGF-isoflavone conjugates for the prevention of restenosis” (Wayne Hughes Institute, priority 1998, dated 2000):
“Also recorded” adds a separate entry of the source.

Experiments:
[1] = system: vascular injury-induced neointimal hyperplasia; assay: Murine restenosis model: photoactivated rose bengal vascular injury of the femoral artery, histomorphometric analysis; assay type: in vivo, C57B1/6 mice; details: for Stenosis Index (Mean ± SE), neointima/media ratio in areas of maximum neointimal hyperplasia, 2 weeks: 2 weeks after injury, EGF-Gen or unconjugated EGF 0.1 mg/kg/dose twice daily for 14 days; for Effect on neointimal hyperplasia / neointima formation (in words): injured femoral arteries, EGF-Gen at less than 5% of the highest nontoxic dose
Description: Three to four week old C57 B1/6 male mice (Taconic, Germantown, N.Y.) were housed in micro-isolator cages on a 12-hour day/night cycle and kept for 2 weeks on the Paigen's cocoa butter diet of 15.8% fat, 1.25% cholesterol and 0.5% sodium cholate (Harlan Teklad, Madison, Wis., U.S.A.) to induce high plasma cholesterol levels similar to those of patients with lipid disorders.
Mice were injected with 300 microliters of a 3 mg/ml photoactivated rose bengal solution (Aldrich, Milwaukee, Wis.) in sterile PBS via the tail vein and anesthetized with ketamine/xylazine solution (100 mg ketamine/kg and 5 […]). Photoactivation of rose bengal using percutaneous irradiation with a green light source (300 Watt Xenon arced lamp equipped with a 550 nanometer broad band interference filter, Oriel Scientific, Stratford, Conn.) was performed on the shaved left leg by placing a 3.2 mm glass fiber optic light guide directly into the left femoral vein/artery for 10 minutes. The unirradiated right femoral artery served as an internal control.
Following irradiation the mice were treated for either 14 days or 28 days with intraperitoneal injections of (1) EGF-Gen conjugate or unconjugated EGF (modified EGF not conjugated to genistein) at a dose level of 0. I mg/kg/dose once in the morning and once in the evening; or (2) 2 mg/kg/dose of unconjugated genistein or derivatives of 6,7-dimethoxyquinizalone dissolved in 10% DMSO once per day; or (3) with PBS.
At the times indicated, the animals were euthanized with ketamine/xylazine and perfused with PBS followed by 4% phosphate buffered formalin. PBS and formalin were pumped through the left ventricle of the heart and allowed to exit through a 3 mm incision through the interior wall of the right ventricle. The brain, thymus, heart, lung, liver, pancreas, kidney, spleen, intestine, stomach, muscle, skin adrenal, and testes were collected for pathological evaluation. For histopathological studies, tissues were fixed in 10% neutral buffered formalin, dehydrated and embedded in paraffin by routine methods. Tissue blocks containing the femoral artery/vein were excised and post-fixed in 4% phosphate buffered formalin overnight and processed for hemotoxylin and eosin (H&E) or Masson's trichrome staining. Glass slides were affixed with 6 micron tissue sections and were stained with hematoxylin and eosin or Masson's trichrome. Serial sections were examined for areas of maximum neointimal hyperplasia for which the ratios of neointima/media (stenosis index) were determined. This was necessary to compensate for angular differences among specimens. A Pixera camera (Pixera Corp., Calif., USA) was used for image capture and the NIH image 1.61(Rasband et al., 1995, Microbeam Analysis Soc. J. 4:137-149) program was used for histo-morphometric analysis.
All numeric data are shown as mean±SEM. Statistical analysis between groups was performed by Mann-Whitney t-test or Fisher's exact test using Instat, GraphPad Software, San Diego, Calif. Cumulative percentage plots were analyzed using Wilcoxon statistics by Statview, Abacus Concepts, Inc., Berkeley, Calif.
Vascular injury was induced in C57B1/6 mice as described for Example 2. Following irradiation, the mice were treated for either 14 days or 28 days with intraperitoneal injections of (1) EGF-Gen or unconjugated EGF (modified EGF not conjugated to genistein) at a dose level of 0.1 mg/kg/dose, once in the morning and once in the evening. For 14 day treatment, this dose represents a cumulative total dose level of 2.8 mg/kg and 2% of the highest nontoxic cumulative dosed tested in toxicity studies (Uckun et al., 1998, Clinical Cancer Res 5:1125-1134). For 28 day treatment, this dose represents a cumulative total dose level of 5.6 mg/kg and 4% of the highest nontoxic cumulative dosed tested in toxicity studies. Control animals were injected with 2 mg/kg/dose of unconjugated genistein or derivatives of 6, 7-dimethoxyquinizalone dissolved in 10% DMSO once per day or with PBS. […]

[2] = system: vascular smooth muscle cells (VSMC); assay: Migration of VSMC through Matrigel matrix-coated Boyden chambers; assay type: cell-based; details: for Effect on migration of VSMC (in words): EGF-gen 0.25, 0.5, 1 μg/ml or EGF 1 μg/ml, overnight
Description: Migration of VSMC through Matrigel™ matrix was performed as described above for Example 4.
FIGS. 7A-7E show the morphological features of migrated VSMC incubated with 0.25 μg/ml (FIG. 7B), 0.5 μg/ml (FIG. 7C), or 1 μg/ml (FIG. 7D) of EGF-gen or with 1 μg/ml EFG (FIG. 7E), overnight. The control (FIG. 7A) was untreated. The cells were then trypsinized and processed for the migration assay using Matrigel™ matrix-coated boyden chambers. Cells migrated through the matrigel and were counted and expressed as % of controls. FIG. 7F is a bar graph showing the dose dependent inhibition of migration by EGF-Gen.

breast cancer cells = details: U.S. patent application Ser. No. 08/602,186; cited from earlier work

Molecule | Stenosis Index (Mean ± SE), neointima/media ratio in areas of maximum neointimal hyperplasia, 2 weeks ([1]; i.p.) | Mice with neointimal hyperplasia detected, 2 weeks after vascular injury ([1]; i.p. 0.1 mg/kg/dose twice daily, 0.1 mg/kg) | Stenosis Index (Mean ± SE), neointima/media ratio in areas of maximum neointimal hyperplasia, 4 weeks ([1]; 4 weeks after injury, i.p., EGF-Gen 0.1 mg/kg/dose twice daily for 28 days, Gen or quinazolines 2 mg/kg/dose once per day in 10% DMSO) | Mice with neointima detected, 4 weeks post injury ([1]; 4 weeks, i.p. 0.1 mg/kg/dose twice daily) | Effect on neointimal hyperplasia / neointima formation (in words) [1] | Effect on neointimal hyperplasia / neointima formation (in words) ([1]; listed as EGF-Genistein) | Effect on migration of VSMC (in words) [2] | Concentration giving complete cessation of in vitro migration of VSMC ([2]; overnight incubation, then Matrigel migration assay) [µg/mL] | Potency of the conjugate relative to unconjugated Genistein (breast cancer cells) [fold] | Stenosis Index (Mean ± SE), neointima/media ratio in areas of maximum neointimal hyperplasia, 2 weeks ([1]; i.p., listed as unconjugated EGF) | Mice with neointimal hyperplasia detected, 2 weeks after vascular injury ([1]; i.p. 0.1 mg/kg/dose twice daily)
EGF-Gen: rhEGF linked via the photoreactive cross-linker Sulfo-SANPAH to genistein at its C7 hydroxyl group (conjugate, UniProt P01133 23-1207, looked up, Pro-epidermal growth factor genistein via Sulfo-SANPAH cross-linker) Pro-epidermal growth factor: PQHWSCPEGTLAGNGNSTCVGPAPFLIFSHGNSIFRIDTEGTNYEQLVVDAGVSVIMDFHYNEKRIYWVDLERQLLQRVFLNGSRQERVCNIEKNVSGMAINWINEEVIWSNQQEGIITVTDMKGNNSHILLSALKYPANVAVDPVERFIFWSSEVAGSLYRADLDGVGVKALLETSEKITAVSLDVLDKRLFWIQYNREGSNSLICSCDYDGGSVHISKHPTQHNLFAMSLFGDRIFYSTWKMKTIWIANKHTGKDMVRINLHSSFVPLGELKVVHPLAQPKAEDDTWEPEQKLCKLRKGNCSSTVCGQDLQSHLCMCAEGYALSRDRKYCEDVNECAFWNHGCTLGCKNTPGSYYCTCPVGFVLLPDGKRCHQLVSCPRNVSECSHDCVLTSEGPLCFCPEGSVLERDGKTCSGCSSPDNGGCSQLCVPLSPVSWECDCFPGYDLQLDEKSCAASGPQPFLLFANSQDIRHMHFDGTDYGTLLSQQMGMVYALDHDPVENKIYFAHTALKWIERANMDGSQRERLIEEGVDVPEGLAVDWIGRRFYWTDRGKSLIGRSDLNGKRSKIITKENISQPRGIAVHPMAKRLFWTDTGINPRIESSSLQGLGRLVIASSDLIWPSGITIDFLTDKLYWCDAKQSVIEMANLDGSKRRRLTQNDVGHPFAVAVFEDYVWFSDWAMPSVMRVNKRTGKDRVRLQGSMLKPSSLVVVHPLAKPGADPCLYQNGGCEHICKKRLGTAWCSCREGFMKASDGKTCLALDGHQLLAGGEVDLKNQVTPLDILSKTRVSEDNITESQHMLVAEIMVSDQDDCAPVGCSMYARCISEGEDATCQCLKGFAGDGKLCSDIDECEMGVPVCPPASSKCINTEGGYVCRCSEGYQGDGIHCLDIDECQLGEHSCGENASCTNTEGGYTCMCAGRLSEPGLICPDSTPPPHLREDDHHYSVRNSDSECPLSHDGYCLHDGVCMYIEALDKYACNCVVGYIGERCQYRDLKWWELRHAGHGQQQKVIVVAVCVVVLVMLLLLSLWGAHYYRTQKLLSKNPKNPYEESSRDVRSRRPADTEDGMSSCPQPWFVVIKEHQDLKNGGQPVAGEDGQAADGSMQPTSWRQEPQLCGMGTEQGCWIPVSSDKGSCPQVMERSFHMPSYGTQTLEGGVEKPHSLLSANPLWQQRALDPPHQMELTQ | 0.0±0.0 | none of the 5; also recorded: none of the five | 0.59±0.16 | all of the 24 | significantly reduced the magnitude of neointimal hyperplasia | suppressed migration of myofibroblasts into the mural thrombus and the formation of neointima | inhibited the migration of VSMC in a dose dependent fashion | 1 | 1000 | – | –
EGF: unconjugated EGF (modified EGF not conjugated to genistein) (protein, UniProt P01133 23-1207, looked up, Pro-epidermal growth factor) Pro-epidermal growth factor: PQHWSCPEGTLAGNGNSTCVGPAPFLIFSHGNSIFRIDTEGTNYEQLVVDAGVSVIMDFHYNEKRIYWVDLERQLLQRVFLNGSRQERVCNIEKNVSGMAINWINEEVIWSNQQEGIITVTDMKGNNSHILLSALKYPANVAVDPVERFIFWSSEVAGSLYRADLDGVGVKALLETSEKITAVSLDVLDKRLFWIQYNREGSNSLICSCDYDGGSVHISKHPTQHNLFAMSLFGDRIFYSTWKMKTIWIANKHTGKDMVRINLHSSFVPLGELKVVHPLAQPKAEDDTWEPEQKLCKLRKGNCSSTVCGQDLQSHLCMCAEGYALSRDRKYCEDVNECAFWNHGCTLGCKNTPGSYYCTCPVGFVLLPDGKRCHQLVSCPRNVSECSHDCVLTSEGPLCFCPEGSVLERDGKTCSGCSSPDNGGCSQLCVPLSPVSWECDCFPGYDLQLDEKSCAASGPQPFLLFANSQDIRHMHFDGTDYGTLLSQQMGMVYALDHDPVENKIYFAHTALKWIERANMDGSQRERLIEEGVDVPEGLAVDWIGRRFYWTDRGKSLIGRSDLNGKRSKIITKENISQPRGIAVHPMAKRLFWTDTGINPRIESSSLQGLGRLVIASSDLIWPSGITIDFLTDKLYWCDAKQSVIEMANLDGSKRRRLTQNDVGHPFAVAVFEDYVWFSDWAMPSVMRVNKRTGKDRVRLQGSMLKPSSLVVVHPLAKPGADPCLYQNGGCEHICKKRLGTAWCSCREGFMKASDGKTCLALDGHQLLAGGEVDLKNQVTPLDILSKTRVSEDNITESQHMLVAEIMVSDQDDCAPVGCSMYARCISEGEDATCQCLKGFAGDGKLCSDIDECEMGVPVCPPASSKCINTEGGYVCRCSEGYQGDGIHCLDIDECQLGEHSCGENASCTNTEGGYTCMCAGRLSEPGLICPDSTPPPHLREDDHHYSVRNSDSECPLSHDGYCLHDGVCMYIEALDKYACNCVVGYIGERCQYRDLKWWELRHAGHGQQQKVIVVAVCVVVLVMLLLLSLWGAHYYRTQKLLSKNPKNPYEESSRDVRSRRPADTEDGMSSCPQPWFVVIKEHQDLKNGGQPVAGEDGQAADGSMQPTSWRQEPQLCGMGTEQGCWIPVSSDKGSCPQVMERSFHMPSYGTQTLEGGVEKPHSLLSANPLWQQRALDPPHQMELTQ | 0.63 ± 0.20 | – | – | – | ineffective | – | significantly promoted the migration | – | – | 0.63±0.20 | 6 of 8
